In PMC7318626:

Target: Neonatal Fc receptor (FcRn), soluble form (UniProt P55899)
Experiment: mass photometry (single-molecule counting of species by mass)
Settings: not stated (in the SI)

UniProt P55899, sequence (P55899 whole entry): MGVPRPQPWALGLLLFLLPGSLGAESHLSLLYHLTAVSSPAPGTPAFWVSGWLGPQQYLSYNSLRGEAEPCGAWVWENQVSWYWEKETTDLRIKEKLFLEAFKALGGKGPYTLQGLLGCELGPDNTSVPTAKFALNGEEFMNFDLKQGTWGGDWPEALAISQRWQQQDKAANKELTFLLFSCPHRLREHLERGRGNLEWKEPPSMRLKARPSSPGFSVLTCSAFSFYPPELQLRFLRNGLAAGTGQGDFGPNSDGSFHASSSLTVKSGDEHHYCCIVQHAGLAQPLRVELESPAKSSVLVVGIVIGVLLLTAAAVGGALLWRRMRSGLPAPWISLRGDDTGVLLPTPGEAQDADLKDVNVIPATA

Kd (pH 5, pH 5, 5.5, 6 and 7)	Kd (pH 5.5, pH 5, 5.5, 6 and 7)	Kd (pH 6, pH 5, 5.5, 6 and 7)	Kd (pH 7, pH 5, 5.5, 6 and 7)	Kd (pH 5, pH 5, 5.5 and 6)	Kd (pH 5.5, pH 5, 5.5 and 6)	Kd (pH 6, pH 5, 5.5 and 6)	Substance
6.6 ± 0.6 nM	3.9 ± 1.5 nM						Trastuzumab (Herceptin), IgG1 monoclonal antibody, called 'IgG' in the article + Neonatal Fc receptor (FcRn), soluble form
59 ± 8 nM	225 ± 20 nM	>200 nM	>200 nM				Trastuzumab (Herceptin), IgG1 monoclonal antibody, called 'IgG' in the article
44 ± 9 nM	171 ± 19 nM			31 ± 11 nM	>200 nM	>200 nM	Neonatal Fc receptor (FcRn), soluble form
